# Laboratory results taken from patent publication US20250002563A1 (published 2025).
# Target: RBD (UniProt P0DTC2 319-541)
# Test: SPR
binder,measurement,value
Nb21 (VHH) VHH: QVQLVESGGGLVQAGGSLRLSCAVSGLGAHRVGWFRRAPGKEREFVAAIGANGGNTNYLDSVKGRFTISRDNAKNTIYLQMNSLKPQDTAVYYCAARDIETAEYTYWGQGTQVTVSS,Kd,< 1 pM
